Measured values from the supplement of paper PMC10065799, “High-throughput profiling of sequence recognition by tyrosine kinases and SH2 domains using bacterial peptide display” (eLife, 2023).

How the values were obtained:
c-Src SH2 = assay: SH2 binding enrichment of the phosphorylated peptide, bacterial display (enrichment ratio); higher = better substrate or ligand; peptides without Tyr show the background
SHP2-C SH2 = assay: as above
Grb2 SH2 = Grb2 SH2 (UniProt P62993); assay: as above
EPHB2 = EPHB2 (UniProt P29323); assay: phosphorylation enrichment, bacterial display (enrichment ratio); higher = better substrate or ligand; peptides without Tyr show the background
Fer (mouse) = assay: as above
MERTK = MERTK (UniProt Q12866); assay: as above
c-Abl (mouse) = assay: as above
FGFR3 = FGFR3 (UniProt P22607); assay: as above
AncSZ = assay: as above
c-Src = assay: as above
Jak2 = Jak2 (UniProt O60674); assay: as above
Fyn = Fyn (UniProt P06241); assay: as above
EPHB1 = EPHB1 (UniProt P54762); assay: as above
Fes = Fes (UniProt P07332); assay: as above
FGFR1 = FGFR1 (UniProt P11362); assay: as above
Hck = Hck (UniProt P08631); assay: as above
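Wherever SH2 binding enrichment of the phosphorylated peptide, bacterial display is given: peptide library displayed on the E. coli surface as eCPX fusions, selected cells deep-sequenced, score is each peptide's frequency after selection divided by its frequency in the input.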
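Wherever phosphorylation enrichment, bacterial display is given: 11-residue human phosphosite peptides and single-mutation variants displayed on the E. coli surface, counted by deep sequencing, each peptide's frequency after selection divided by its frequency in the unselected input library; frequency after pTyr selection over input frequency; kinase dosed for 20-30% of maximal phosphorylation in three min.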

EPHB1, sequence (P54762 whole entry, looked up): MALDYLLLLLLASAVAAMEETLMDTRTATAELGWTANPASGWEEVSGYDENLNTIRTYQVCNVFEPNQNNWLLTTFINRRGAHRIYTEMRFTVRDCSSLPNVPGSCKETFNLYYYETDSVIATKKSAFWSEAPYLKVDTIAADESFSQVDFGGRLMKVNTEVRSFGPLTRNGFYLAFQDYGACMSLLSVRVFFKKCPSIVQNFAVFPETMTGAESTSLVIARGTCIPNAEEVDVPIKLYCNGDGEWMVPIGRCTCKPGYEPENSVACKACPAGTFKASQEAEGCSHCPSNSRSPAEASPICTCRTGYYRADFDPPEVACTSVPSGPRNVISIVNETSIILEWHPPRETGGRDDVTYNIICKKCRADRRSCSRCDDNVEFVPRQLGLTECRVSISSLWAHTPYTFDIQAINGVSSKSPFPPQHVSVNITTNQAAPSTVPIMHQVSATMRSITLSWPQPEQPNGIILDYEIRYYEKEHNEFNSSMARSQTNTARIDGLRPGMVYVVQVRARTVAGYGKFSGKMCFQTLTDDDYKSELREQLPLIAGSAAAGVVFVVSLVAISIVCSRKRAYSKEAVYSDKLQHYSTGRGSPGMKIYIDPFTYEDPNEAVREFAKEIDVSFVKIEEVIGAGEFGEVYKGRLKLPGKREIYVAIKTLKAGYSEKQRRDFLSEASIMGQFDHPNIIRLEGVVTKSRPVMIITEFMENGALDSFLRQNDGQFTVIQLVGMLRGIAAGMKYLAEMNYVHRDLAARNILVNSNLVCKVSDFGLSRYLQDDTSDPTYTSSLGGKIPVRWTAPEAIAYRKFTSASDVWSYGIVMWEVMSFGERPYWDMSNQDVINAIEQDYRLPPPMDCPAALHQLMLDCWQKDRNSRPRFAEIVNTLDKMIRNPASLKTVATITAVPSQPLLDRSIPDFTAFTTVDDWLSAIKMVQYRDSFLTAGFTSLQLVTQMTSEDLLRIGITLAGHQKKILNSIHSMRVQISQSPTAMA
EPHB2, sequence (P29323 whole entry, looked up): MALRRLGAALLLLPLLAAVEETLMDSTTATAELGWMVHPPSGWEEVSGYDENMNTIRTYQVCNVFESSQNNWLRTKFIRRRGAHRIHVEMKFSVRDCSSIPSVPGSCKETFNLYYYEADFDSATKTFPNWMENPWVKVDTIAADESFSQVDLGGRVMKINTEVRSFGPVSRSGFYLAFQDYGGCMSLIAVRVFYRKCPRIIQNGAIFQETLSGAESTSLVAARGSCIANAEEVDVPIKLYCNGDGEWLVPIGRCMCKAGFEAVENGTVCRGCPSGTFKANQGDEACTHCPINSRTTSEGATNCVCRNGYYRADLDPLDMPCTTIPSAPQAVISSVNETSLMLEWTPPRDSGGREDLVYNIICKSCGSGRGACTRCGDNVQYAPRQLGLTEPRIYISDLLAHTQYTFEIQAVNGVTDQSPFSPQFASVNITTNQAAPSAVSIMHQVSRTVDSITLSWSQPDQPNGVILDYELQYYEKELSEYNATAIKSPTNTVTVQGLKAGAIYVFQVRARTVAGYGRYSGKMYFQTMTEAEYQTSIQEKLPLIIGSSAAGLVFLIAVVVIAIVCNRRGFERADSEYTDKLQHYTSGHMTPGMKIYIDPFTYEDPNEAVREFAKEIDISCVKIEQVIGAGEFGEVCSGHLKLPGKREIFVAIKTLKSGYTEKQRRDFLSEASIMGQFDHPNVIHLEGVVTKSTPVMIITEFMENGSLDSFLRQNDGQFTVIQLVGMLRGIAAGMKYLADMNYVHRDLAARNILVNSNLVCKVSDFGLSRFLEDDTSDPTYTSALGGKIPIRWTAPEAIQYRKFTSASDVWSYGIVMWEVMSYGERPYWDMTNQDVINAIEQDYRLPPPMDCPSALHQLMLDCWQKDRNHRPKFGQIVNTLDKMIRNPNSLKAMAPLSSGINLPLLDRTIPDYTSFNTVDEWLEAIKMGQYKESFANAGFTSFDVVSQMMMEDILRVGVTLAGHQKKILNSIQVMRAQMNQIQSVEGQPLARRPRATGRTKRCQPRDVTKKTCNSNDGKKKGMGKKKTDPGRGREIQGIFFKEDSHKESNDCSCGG
FGFR1, sequence (P11362 whole entry, looked up): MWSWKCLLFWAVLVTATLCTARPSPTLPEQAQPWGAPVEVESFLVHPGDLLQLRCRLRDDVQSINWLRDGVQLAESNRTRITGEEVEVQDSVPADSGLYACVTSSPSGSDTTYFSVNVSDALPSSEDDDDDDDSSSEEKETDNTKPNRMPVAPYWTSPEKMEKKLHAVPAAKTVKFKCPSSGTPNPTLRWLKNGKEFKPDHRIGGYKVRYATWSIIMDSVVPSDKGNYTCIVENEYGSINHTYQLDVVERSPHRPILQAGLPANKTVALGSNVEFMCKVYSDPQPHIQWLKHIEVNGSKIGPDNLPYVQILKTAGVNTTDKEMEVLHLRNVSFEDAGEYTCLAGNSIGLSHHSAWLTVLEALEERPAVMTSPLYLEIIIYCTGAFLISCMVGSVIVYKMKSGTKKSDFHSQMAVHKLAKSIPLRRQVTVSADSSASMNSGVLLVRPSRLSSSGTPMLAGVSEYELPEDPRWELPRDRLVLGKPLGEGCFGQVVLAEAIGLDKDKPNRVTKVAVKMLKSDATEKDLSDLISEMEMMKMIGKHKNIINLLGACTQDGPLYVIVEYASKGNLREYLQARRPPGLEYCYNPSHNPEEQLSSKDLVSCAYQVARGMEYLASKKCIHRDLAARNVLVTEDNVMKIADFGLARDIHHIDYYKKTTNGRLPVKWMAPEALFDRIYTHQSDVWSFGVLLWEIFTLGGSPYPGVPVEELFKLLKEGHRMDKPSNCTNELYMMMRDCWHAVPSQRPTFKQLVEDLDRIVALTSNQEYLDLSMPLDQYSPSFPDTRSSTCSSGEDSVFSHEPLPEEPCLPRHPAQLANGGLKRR
Fyn, sequence (P06241 whole entry, looked up): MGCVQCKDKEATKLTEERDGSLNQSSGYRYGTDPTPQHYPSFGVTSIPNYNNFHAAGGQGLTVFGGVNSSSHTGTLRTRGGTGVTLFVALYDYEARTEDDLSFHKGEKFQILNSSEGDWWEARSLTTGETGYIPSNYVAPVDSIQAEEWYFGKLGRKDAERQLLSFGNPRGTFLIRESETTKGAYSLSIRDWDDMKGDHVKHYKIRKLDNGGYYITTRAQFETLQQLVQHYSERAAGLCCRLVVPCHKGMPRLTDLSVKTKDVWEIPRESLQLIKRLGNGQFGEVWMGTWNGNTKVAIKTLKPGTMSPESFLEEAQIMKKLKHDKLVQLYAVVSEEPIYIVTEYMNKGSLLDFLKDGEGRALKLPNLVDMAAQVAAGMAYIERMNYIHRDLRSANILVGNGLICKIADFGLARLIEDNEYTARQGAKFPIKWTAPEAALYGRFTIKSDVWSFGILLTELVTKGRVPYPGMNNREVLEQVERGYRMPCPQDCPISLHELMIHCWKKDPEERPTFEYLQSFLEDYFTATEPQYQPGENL
MERTK, sequence (Q12866 whole entry, looked up): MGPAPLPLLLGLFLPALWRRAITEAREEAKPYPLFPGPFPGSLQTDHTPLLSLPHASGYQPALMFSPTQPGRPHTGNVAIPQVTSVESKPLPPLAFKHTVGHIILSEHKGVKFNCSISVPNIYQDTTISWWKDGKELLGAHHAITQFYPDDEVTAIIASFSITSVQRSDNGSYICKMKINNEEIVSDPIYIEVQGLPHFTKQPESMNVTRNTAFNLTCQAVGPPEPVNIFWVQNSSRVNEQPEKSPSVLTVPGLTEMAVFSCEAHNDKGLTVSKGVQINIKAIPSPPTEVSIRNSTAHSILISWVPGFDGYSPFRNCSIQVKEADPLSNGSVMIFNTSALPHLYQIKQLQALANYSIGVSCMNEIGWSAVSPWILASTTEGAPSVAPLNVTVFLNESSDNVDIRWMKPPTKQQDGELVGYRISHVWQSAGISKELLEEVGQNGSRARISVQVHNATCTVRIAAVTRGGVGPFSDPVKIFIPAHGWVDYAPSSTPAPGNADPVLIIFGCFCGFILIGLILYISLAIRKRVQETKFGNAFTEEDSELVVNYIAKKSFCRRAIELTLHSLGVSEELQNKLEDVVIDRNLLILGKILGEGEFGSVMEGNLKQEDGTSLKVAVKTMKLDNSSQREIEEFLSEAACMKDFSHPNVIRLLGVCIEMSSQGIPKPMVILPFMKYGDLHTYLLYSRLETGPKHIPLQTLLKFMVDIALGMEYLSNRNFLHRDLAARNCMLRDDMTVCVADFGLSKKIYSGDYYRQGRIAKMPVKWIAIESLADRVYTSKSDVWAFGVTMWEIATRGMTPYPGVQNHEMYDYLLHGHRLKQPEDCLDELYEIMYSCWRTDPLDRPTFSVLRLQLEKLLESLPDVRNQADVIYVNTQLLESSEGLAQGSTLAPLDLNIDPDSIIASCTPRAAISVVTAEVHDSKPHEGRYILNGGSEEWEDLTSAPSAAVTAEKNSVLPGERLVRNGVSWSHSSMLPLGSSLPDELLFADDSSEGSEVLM
Hck, sequence (P08631 whole entry, looked up, the tested form may be a part): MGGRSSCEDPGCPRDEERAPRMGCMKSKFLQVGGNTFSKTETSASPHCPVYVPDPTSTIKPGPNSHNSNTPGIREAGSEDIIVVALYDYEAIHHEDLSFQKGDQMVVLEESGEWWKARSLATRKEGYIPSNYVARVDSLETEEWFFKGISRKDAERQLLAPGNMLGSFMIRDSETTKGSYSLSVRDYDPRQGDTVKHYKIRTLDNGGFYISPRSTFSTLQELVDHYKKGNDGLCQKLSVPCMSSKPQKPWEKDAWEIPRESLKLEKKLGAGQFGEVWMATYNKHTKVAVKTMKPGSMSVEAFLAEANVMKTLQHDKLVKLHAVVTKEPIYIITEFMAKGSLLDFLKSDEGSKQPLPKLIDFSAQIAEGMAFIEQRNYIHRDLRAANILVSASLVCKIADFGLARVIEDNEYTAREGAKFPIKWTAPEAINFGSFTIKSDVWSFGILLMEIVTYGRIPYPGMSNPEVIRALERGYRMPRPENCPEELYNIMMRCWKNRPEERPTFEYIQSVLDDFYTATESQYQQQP

| SH2 binding enrichment (c-Src SH2) | SH2 binding enrichment (SHP2-C SH2) | SH2 binding enrichment (Grb2 SH2) | Sequence | phosphorylation enrichment (EPHB2) | phosphorylation enrichment (Fer (mouse)) | phosphorylation enrichment (MERTK) | phosphorylation enrichment (c-Abl (mouse)) | phosphorylation enrichment (FGFR3) | phosphorylation enrichment (AncSZ) | phosphorylation enrichment (c-Src) | phosphorylation enrichment (Jak2) | phosphorylation enrichment (Fyn) | phosphorylation enrichment (EPHB1) | phosphorylation enrichment (Fes) | phosphorylation enrichment (FGFR1) | phosphorylation enrichment (Hck) |
| --- | --- | --- | --- | --- | --- | --- | --- | --- | --- | --- | --- | --- | --- | --- | --- | --- |
| 0.396 | 0.605 | 1.31 | LLANAYIFVVQ [L1CAM_Y418_YF] | 1.13 | 0.793 | 0.482 | 1.44 | 1.18 | 1.46 | 0.538 | 1.79 | 0.606 | 0.757 | 2.13 | 1 | 0.569 |
| 0.521 | 1.24 | 0.964 | CRAVKYLQMVG [AVPR2_Y117] | 0.44 | 0.443 | 0.379 | 0.522 | 0.574 | 0.711 | 0.401 | 0.619 | 0.405 | 0.608 | 0.739 | 0.499 | 0.504 |
| 0.548 | 0.518 | 1 | ATATEYHTTSH [SLC4A1_Y46_D45E] | 0.55 | 0.301 | 0.395 | 0.487 | 0.309 | 0.506 | 0.413 | 0.99 | 0.38 | 0.316 | 0.509 | 0.456 | 0.333 |
| 0.72 | 1.22 | 1.24 | MTYVFYRENLR [NLRP14_Y443] | 0.741 | 0.521 | 0.514 | 0.791 | 0.967 | 1.64 | 1.36 | 1.48 | 0.823 | 1.03 | 1.4 | 0.653 | 1.03 |
| 1.28 | 1.65 | 1.32 | CLAQRYLIWEC [SCN5A_Y694_R689C] | 0.646 | 0.568 | 0.48 | 0.788 | 0.783 | 1.29 | 0.505 | 1.03 | 0.533 | 0.836 | 1.39 | 0.693 | 0.535 |
| 0.79 | 0.837 | 0.974 | EEAAGCAQESQ [CAMKV_Y491_Y491C] | 0.591 | 0.657 | 0.625 | 1.18 | 0.833 | 1.15 | 0.491 | 1.06 | 0.491 | 0.645 | 1.23 | 0.527 | 0.575 |
| 0.602 | 0.685 | 0.708 | KCCCIYEKPRS [PPP1R11_Y64_A69S] | 0.892 | 7.18 | 1.17 | 3.97 | 0.667 | 1.86 | 3.04 | 0.642 | 2.07 | 1.03 | 1.01 | 0.456 | 2.45 |
| 0.486 | 0.714 | 1.08 | TLKVGYTEKQR [EPHA3_Y659] | 0.299 | 0.386 | 0.322 | 0.369 | 0.351 | 0.417 | 0.328 | 0.407 | 0.27 | 0.259 | 0.378 | 0.404 | 0.353 |
| 0.872 | 0.898 | 0.915 | RAHARYCADAC [ACOT4_Y52_R57C] | 0.499 | 0.518 | 0.437 | 0.889 | 0.395 | 0.601 | 0.41 | 0.61 | 0.344 | 0.402 | 0.677 | 0.436 | 0.45 |
| 0.467 | 0.68 | 0.697 | KSEMSYIDGEK [SORBS1_Y485] | 0.999 | 0.493 | 0.479 | 0.586 | 0.592 | 0.899 | 0.449 | 0.736 | 0.502 | 0.72 | 0.848 | 0.659 | 0.469 |
| 0.506 | 0.691 | 0.69 | RAADFYSQQMA [GBP6_Y334_YF] | 0.468 | 0.538 | 0.56 | 1.04 | 0.671 | 0.798 | 0.675 | 1.16 | 0.427 | 0.425 | 0.769 | 0.537 | 0.375 |
